Earlier results in patent publication US6528620B1, “Sid-polyamide fusions: a potent method of regulating gene expression” (University of Utah Research Foundation, priority 1999, dated 2003).

Legend:
Conditions in all cases: Ayer et al., Cell 80:767-776 (1995); cited from earlier work
[1] = target: T1, PAH3 domain of mSin3A (Mus musculus, UniProt Q60520)
T1 sequence (Q60520 457-526 limits assumed): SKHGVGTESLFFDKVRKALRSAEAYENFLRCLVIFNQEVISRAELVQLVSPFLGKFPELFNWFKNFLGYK

[2] = target: T2, PAH1 domain of mSin3A (Mus musculus, UniProt Q60520)
T2 sequence (Q60520 119-189 limits assumed): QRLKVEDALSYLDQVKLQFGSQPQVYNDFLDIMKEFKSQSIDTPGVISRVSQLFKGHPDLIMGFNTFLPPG

[3] = system: PAH4 domain of mSin3A
Chain of PAH4 domain of mSin3A (Q60520 889-968 limits assumed): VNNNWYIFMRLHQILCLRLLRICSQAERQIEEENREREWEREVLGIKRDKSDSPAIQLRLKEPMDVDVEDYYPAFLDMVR

B1: Mad1: bHLHZip transcriptional repressor protein of the Mad family (protein)
chain: MAAAVRMNIQMLLEAADYLERREREAEHGYASMLPYNNKDRDALKRRNKSKKNNSSSRSTHNEMEKNRRAHLRLCLEKLKGLVPLGPESSRHTTLSLLTKAKLHIKKLEDCDRKAVHQIDQLQREQRHLKRQLEKLGIERIRMDSIGSTVSSERSDSDREEIDVDVESTDYLTGDLDWSSSSVSDSDERGSMQSLGSDEGYSSTSIKRIKLQDSHKACLGL
modifications: left off: small tags and cut ends
notes: bHLHZip transcriptional repressor protein of the Mad family
no interaction is detected: interaction with PAH3 [1] | interaction with PAH1 [2] | interaction with PAH4 [3]
